Measured values from article PMC9635645.

Biological target: GAL4 DBD-BEAF-32B (Drosophila)
Assay: two-hybrid; GAL4 AD fusions (pOAD) against GAL4 DBD fusions (pOBD2) in yeast; 50 to 100 colonies with both plasmids scored for growth on medium lacking adenine and histidine, with X-α-Gal

GAL4 DBD-BEAF-32B (Drosophila), sequence (main, as listed by the source): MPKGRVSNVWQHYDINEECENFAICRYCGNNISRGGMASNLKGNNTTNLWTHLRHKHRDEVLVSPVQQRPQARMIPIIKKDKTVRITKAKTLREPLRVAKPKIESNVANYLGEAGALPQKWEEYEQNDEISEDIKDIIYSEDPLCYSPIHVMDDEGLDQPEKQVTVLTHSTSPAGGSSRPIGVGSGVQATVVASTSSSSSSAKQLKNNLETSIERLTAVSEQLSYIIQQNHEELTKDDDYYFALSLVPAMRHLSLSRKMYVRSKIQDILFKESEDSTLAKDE

% of Y2H colonies expressing the reporter genes: 20%
Substance: GAL4 AD-Pbro BD4–5 (domain or fragment)
